# Reference: patent US20180051081A1 (published 2018)
# Columns and labels:
# [1] = biological target: T1, pig CD47 (pig, UniProt Q9GKE8 19-303); test: FACS, pig RBCs, supernatant 10 ng/ml
# T1 construct: whole, on cells; also called CD47 on porcine RBCs
# T1 sequence (looked up): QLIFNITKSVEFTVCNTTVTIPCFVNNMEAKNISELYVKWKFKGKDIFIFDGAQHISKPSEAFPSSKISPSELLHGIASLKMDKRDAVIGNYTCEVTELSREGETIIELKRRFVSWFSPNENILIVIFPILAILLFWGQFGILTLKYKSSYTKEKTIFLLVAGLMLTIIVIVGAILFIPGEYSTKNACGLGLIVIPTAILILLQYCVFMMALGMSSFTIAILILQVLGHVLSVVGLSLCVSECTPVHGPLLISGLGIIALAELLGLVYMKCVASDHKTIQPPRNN
# Experimental: (§1) RBCs are incubated for 60 minutes on ice with tissue culture supernatants containing the secreted humanized antibodies at a concentration of 10 ng/ml in a solution of phosphate buffered saline, pH 7.2, 2.5 mM EDTA (PBS+E), or with various concentrations of purified antibodies. Cells are then washed with cold PBS+E, and incubated for an additional hour on ice with FITC labeled donkey anti-human antibody (Jackson Immuno Research Labs, West Grove, Pa.; Catalogue #709-096-149) in PBS+E. Cells are then washed with PBS+E, and antibody binding is analyzed using a BD FACSAria Cell Sorter (Becton Dickinson) or a C6 Accuri Flow Cytometer (Becton Dickinson). Antibody binding is quantitated by comparison of mean fluorescence values relative to that of chimeric antibody >VxP037-01LC (SEQ ID NO:7))/>VxP037-01HC (SEQ ID NO:57). The mean fluorescence value for each antibody is divided by the mean fluorescence value for the chimeric antibody.
# [2] = biological target: T2, rat CD47 (rat, UniProt P97829 19-303); test: FACS, rat RBCs, supernatant 10 ng/ml
# T2 construct: whole, on cells; also called CD47 on rat RBCs
# T2 sequence (looked up): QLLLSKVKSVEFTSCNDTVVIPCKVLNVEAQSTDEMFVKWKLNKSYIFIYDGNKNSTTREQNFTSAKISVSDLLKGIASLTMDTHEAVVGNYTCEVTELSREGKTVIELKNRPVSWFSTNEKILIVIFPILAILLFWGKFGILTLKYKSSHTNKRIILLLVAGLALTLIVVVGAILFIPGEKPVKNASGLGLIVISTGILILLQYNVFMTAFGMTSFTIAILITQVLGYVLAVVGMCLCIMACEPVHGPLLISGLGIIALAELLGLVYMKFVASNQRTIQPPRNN
# Experimental: as §1
# [3] = biological target: T3, dog CD47 (dog, UniProt A0A8I3PM61 19-310); test: FACS, dog RBCs, supernatant 10 ng/ml
# T3 construct: also called CD47 on dog RBCs
# T3 sequence: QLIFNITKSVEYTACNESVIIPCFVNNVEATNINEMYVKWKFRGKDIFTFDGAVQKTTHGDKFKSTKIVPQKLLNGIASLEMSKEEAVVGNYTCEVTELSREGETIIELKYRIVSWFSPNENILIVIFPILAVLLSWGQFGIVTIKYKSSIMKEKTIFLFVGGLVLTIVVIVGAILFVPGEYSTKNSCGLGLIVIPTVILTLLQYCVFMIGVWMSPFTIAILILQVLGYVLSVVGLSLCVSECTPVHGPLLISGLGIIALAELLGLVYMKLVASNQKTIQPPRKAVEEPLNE
# Experimental: as §1
# [4] = biological target: T4, human CD47 (human, UniProt Q08722 19-323); test: FACS, human RBCs, supernatant 10 ng/ml
# T4 construct: whole, on cells; also called CD47 on human RBCs; CD47 on OV10 cells
# T4 sequence (Q08722 19-323): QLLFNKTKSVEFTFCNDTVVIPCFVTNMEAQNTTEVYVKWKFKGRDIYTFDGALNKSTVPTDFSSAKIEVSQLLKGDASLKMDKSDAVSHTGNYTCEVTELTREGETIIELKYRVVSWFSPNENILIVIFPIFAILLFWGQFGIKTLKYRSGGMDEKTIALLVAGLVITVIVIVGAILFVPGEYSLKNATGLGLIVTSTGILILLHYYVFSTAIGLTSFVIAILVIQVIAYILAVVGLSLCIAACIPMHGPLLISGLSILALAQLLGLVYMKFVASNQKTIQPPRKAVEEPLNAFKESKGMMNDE
# Experimental: as §1
# [5] = biological target: T5, mouse CD47 (mouse, UniProt Q61735 19-303); test: FACS, mouse RBCs, supernatant 10 ng/ml
# T5 construct: whole, on cells; also called CD47 on mouse RBCs; CD47 on 4T1 cells
# T5 sequence (looked up): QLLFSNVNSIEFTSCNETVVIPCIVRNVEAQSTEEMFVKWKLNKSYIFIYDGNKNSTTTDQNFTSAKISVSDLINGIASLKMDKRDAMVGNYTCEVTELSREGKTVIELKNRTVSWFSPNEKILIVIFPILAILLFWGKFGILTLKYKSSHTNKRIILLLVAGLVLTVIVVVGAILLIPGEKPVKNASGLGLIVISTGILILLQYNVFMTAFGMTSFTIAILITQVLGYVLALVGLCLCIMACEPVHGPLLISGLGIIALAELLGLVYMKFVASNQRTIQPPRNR
# Experimental: as §1
Binder,mean fluorescence relative to chimera [1],mean fluorescence relative to chimera [2],mean fluorescence relative to chimera [3],mean fluorescence relative to chimera [4],mean fluorescence relative to chimera [5]
"Clone 7 (pVxK7b-037-hum07-LC / pVxK7b-037-hum07-HC) (antibody, human IgG1, kappa, V domains shown) VH: QVQLQESGPGLVKPGATVKISCKVSGYTFTNYYVFWVRQARGQRLEWIGDINPVNGDTNFNEKFKNRVTITADKSTSTAYMELSSLRSEDTAVYYCARGGYTMDYWGQGTLVTVSS VL: DIVMTQTPLSLPVTPGEPASISCRSSQSLVHSNGNTYLHWYLQKPGQSPQLLIYKVSYRFSGVPDRFSGSGSGTDFTLKISRVEAEDVGVYYCSQNTHVPRTFGQGTKVEIKR",0.9,0.8,0.8,0.5,0.4
"Clone 11 (pVxK7b-037-hum11-LC / pVxK7b-037-hum11-HC) (antibody, human IgG1, kappa, V domains shown, also called Cl 11) VH: QVQLQESGPGLVKPGATVKISCKVSGYTFTNYYVFWVRQARGQRLEWIGDINPVNGDTNFNEKFKNRVTITADKSTSTAYMELSSLRSEDTAVYYCARGGYTMDYWGQGTLVTVSS VL: EIVLTQSPATLSVSPGERATLSCRSSQSLVHSNGNTYLHWYQQKPGQAPRLLIYKVSYRFSGVPSRFSGSGSGTDFTFTISSLEAEDAATYYCSQNTHVPRTFGQGTKVEIKR",1.2,1.2,0.8,0.8,0.7
"Clone 12 (pVxK7b-037-hum12-LC / pVxK7b-037-hum12-HC) (antibody, human IgG1, kappa, V domains shown) VH: QVQLQESGPGLVKPGATVKISCKVSGYTFTNYYVFWVRQARGQRLEWIGDINPVNGDTNFNEKFKNRVTITADKSTSTAYMELSSLRSEDTAVYYCARGGYTMDYWGQGTLVTVSS VL: DIVMTQTPLSLPVTPGEPASISCRSSQSLVHSNGNTYLHWYQQKPGKAPKLLIYKVSYRFSGVPDRFSGSGSGTDFTLKISRVEAEDVGVYYCSQNTHVPRTFGQGTKVEIKR",1.4,1.3,0.9,0.8,0.6
"Clone 8 (pVxK7b-037-hum08-LC / pVxK7b-037-hum08-HC) (antibody, human IgG1, kappa) light: DIVMTQTPLSLPVTPGEPASISCRSSQSLVHSNGNTYLHWYQQKPGKAPKLLIYKVSYRFSGVPDRFSGSGSGTDFTLKISRVEAEDVGVYYCSQNTHVPRTFGQGTKVEIKRTVAAPSVFIFPPSDEQLKSGTASVVCLLNNFYPREAKVQWKVDNALQSGNSQESVTEQDSKDSTYSLSSTLTLSKADYEKHKVYACEVTHQGLSSPVTKSFNRGEC heavy: not shown",0.8,1.2,0.8,0.7,0.7
"Clone 17 (pVxK7b-037-hum17-LC / pVxK7b-037-hum17-HC) (antibody, human IgG1, kappa) light: AIQLTQSPSSLSASVGDRVTITCRSSQSLVHSNGNTYLHWYQQKPGQAPRLLIYKVSYRFSGVPDRFSGSGSGTDFTLKISRVEAEDVGVYYCSQNTHVPRTFGQGTKVEIKRTVAAPSVFIFPPSDEQLKSGTASVVCLLNNFYPREAKVQWKVDNALQSGNSQESVTEQDSKDSTYSLSSTLTLSKADYEKHKVYACEVTHQGLSSPVTKSFNRGEC heavy: not shown",1.3,2.1,1.3,0.8,0.9
"Clone 18 (pVxK7b-037-hum18-LC / pVxK7b-037-hum18-HC) (antibody, human IgG1, kappa, V domains shown) VH: EVQLVQSGAEVKKPGESLRISCKGSGYTFTNYYVFWIRQSPSRGLEWLGDINPVNGDTNFNEKFKNRVTITADKSTSTAYMELSSLRSEDTAVYYCARGGYTMDYWGQGTLVTVSS VL: EIVLTQSPATLSVSPGERATLSCRSSQSLVHSNGNTYLHWYQQKPGQAPRLLIYKVSYRFSGVPSRFSGSGSGTDFTFTISSLEAEDAATYYCSQNTHVPRTFGQGTKVEIKR",1.2,2.2,1.5,1,1.3
"Clone 16 (pVxK7b-037-hum16-LC / pVxK7b-037-hum16-HC) (antibody, human IgG1, kappa, V domains shown) VH: QVQLQESGPGLVKPSQTLSLTCTVSGYTFTNYYVFWVRQARGQRLEWIGDINPVNGDTNFNEKFKNRVTISADKSISTAYLQWSSLKASDTAMYYCARGGYTMDYWGQGTLVTVSS VL: AIQLTQSPSSLSASVGDRVTITCRSSQSLVHSNGNTYLHWYQQKPGQAPRLLIYKVSYRFSGVPDRFSGSGSGTDFTLKISRVEAEDVGVYYCSQNTHVPRTFGQGTKVEIKR",1.1,2.1,1.1,0.9,1
